Test results published in patent publication US20140087995A1 (published 2014).
Numbered stars: 1 amine (or outer) side, 2 acyl side, 3 side chain; on linkers, the order of the positions; unused ones are H or OH. Bridge positions count the residues as written; N and C are the ends. Side chains are listed from the residue outwards. Ends that are not written are not given here. * marks the point of attachment. C20 diacid = O=C(O)CCCCCCCCCCCCCCCCCCC(=O)*; γGlu = O=C(O)[C@H](CCC(=O)[*:2])N[*:1]

Assays:
[1] = biological target: T1, human amylin receptor (amylin 3(a) receptor: human calcitonin receptor co-expressed with RAMP-3) (human, UniProt P30988 25-474; O60896 24-148, limits assumed); assay: cell-based or functional assay
T1 sequence (looked up) 1: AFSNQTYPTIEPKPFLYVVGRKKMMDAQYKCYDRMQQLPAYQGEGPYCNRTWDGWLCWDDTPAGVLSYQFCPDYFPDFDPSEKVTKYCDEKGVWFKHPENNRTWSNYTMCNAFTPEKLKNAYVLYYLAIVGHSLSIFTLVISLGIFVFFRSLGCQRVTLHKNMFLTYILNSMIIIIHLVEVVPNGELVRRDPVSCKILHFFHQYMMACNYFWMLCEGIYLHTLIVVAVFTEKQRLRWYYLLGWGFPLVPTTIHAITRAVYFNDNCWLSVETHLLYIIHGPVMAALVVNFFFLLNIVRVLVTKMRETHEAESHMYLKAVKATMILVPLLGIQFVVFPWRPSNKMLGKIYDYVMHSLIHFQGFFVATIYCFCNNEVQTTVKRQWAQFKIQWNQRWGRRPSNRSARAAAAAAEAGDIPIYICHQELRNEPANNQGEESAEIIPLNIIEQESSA
T1 sequence (looked up) 2: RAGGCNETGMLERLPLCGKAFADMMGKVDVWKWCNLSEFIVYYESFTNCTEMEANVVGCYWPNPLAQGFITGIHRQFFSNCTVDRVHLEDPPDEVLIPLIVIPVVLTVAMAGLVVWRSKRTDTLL

[2] = biological target: T2, human calcitonin receptor (human, UniProt P30988 25-474); assay: cell-based or functional assay
T2 sequence (looked up): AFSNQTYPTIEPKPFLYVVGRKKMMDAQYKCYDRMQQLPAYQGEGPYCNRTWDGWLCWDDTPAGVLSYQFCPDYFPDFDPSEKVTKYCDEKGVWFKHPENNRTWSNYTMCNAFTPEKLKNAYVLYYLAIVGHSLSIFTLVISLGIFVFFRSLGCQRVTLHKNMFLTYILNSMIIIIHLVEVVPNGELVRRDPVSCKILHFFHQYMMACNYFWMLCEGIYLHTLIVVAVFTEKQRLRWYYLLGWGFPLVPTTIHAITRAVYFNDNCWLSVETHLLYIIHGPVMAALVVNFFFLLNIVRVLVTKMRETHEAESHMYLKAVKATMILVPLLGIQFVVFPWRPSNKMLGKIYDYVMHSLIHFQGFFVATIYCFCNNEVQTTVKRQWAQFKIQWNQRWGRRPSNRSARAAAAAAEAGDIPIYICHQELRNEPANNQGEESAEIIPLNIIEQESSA

| Binder | hAmylin-R funct. EC50 [1] | Ratio hCT/hAmylin funct. (hCTR EC50 against hAmylin-R EC50) [2] | hCTR funct. EC50 [2] |
| --- | --- | --- | --- |
| K([γGlu-C20 diacid])CNTATCATQRLAHFLRHSSPNFGAIPSSTNVGSHTY-NH2 (disulfide 2-7; N-terminus assumed; SMILES CC[C@H](C)[C@H](NC(=O)[C@H](C)NC(=O)CNC(=O)[C@H](Cc1ccccc1)NC(=O)[C@H](CC(N)=O)NC(=O)[C@@H]1CCCN1C(=O)[C@H](CO)NC(=O)[C@H](CO)NC(=O)[C@H](Cc1c[nH]cn1)NC(=O)[C@H](CCCNC(=N)N)NC(=O)[C@H](CC(C)C)NC(=O)[C@H](Cc1ccccc1)NC(=O)[C@H](Cc1c[nH]cn1)NC(=O)[C@H](C)NC(=O)[C@H](CC(C)C)NC(=O)[C@H](CCCNC(=N)N)NC(=O)[C@H](CCC(N)=O)NC(=O)[C@@H](NC(=O)[C@H](C)NC(=O)[C@@H]1CSSC[C@H](NC(=O)[C@@H](N)CCCCNC(=O)CC[C@H](NC(=O)CCCCCCCCCCCCCCCCCCC(=O)O)C(=O)O)C(=O)N[C@@H](CC(N)=O)C(=O)N[C@@H]([C@@H](C)O)C(=O)N[C@@H](C)C(=O)N[C@@H]([C@@H](C)O)C(=O)N1)[C@@H](C)O)C(=O)N1CCC[C@H]1C(=O)N[C@@H](CO)C(=O)N[C@@H](CO)C(=O)N[C@H](C(=O)N[C@@H](CC(N)=O)C(=O)N[C@H](C(=O)NCC(=O)N[C@@H](CO)C(=O)N[C@@H](Cc1c[nH]cn1)C(=O)N[C@H](C(=O)N[C@@H](Cc1ccc(O)cc1)C(N)=O)[C@@H](C)O)C(C)C)[C@@H](C)O, also called compound 66) | 0.027 nM | 20.1 | 0.542 nM |
| K([γGlu-C20 diacid])CNTATCATQRLAHFLRHSSPNFGAIPSSTPVGSNTY-NH2 (disulfide 2-7; N-terminus assumed; SMILES CC[C@H](C)[C@H](NC(=O)[C@H](C)NC(=O)CNC(=O)[C@H](Cc1ccccc1)NC(=O)[C@H](CC(N)=O)NC(=O)[C@@H]1CCCN1C(=O)[C@H](CO)NC(=O)[C@H](CO)NC(=O)[C@H](Cc1c[nH]cn1)NC(=O)[C@H](CCCNC(=N)N)NC(=O)[C@H](CC(C)C)NC(=O)[C@H](Cc1ccccc1)NC(=O)[C@H](Cc1c[nH]cn1)NC(=O)[C@H](C)NC(=O)[C@H](CC(C)C)NC(=O)[C@H](CCCNC(=N)N)NC(=O)[C@H](CCC(N)=O)NC(=O)[C@@H](NC(=O)[C@H](C)NC(=O)[C@@H]1CSSC[C@H](NC(=O)[C@@H](N)CCCCNC(=O)CC[C@H](NC(=O)CCCCCCCCCCCCCCCCCCC(=O)O)C(=O)O)C(=O)N[C@@H](CC(N)=O)C(=O)N[C@@H]([C@@H](C)O)C(=O)N[C@@H](C)C(=O)N[C@@H]([C@@H](C)O)C(=O)N1)[C@@H](C)O)C(=O)N1CCC[C@H]1C(=O)N[C@@H](CO)C(=O)N[C@@H](CO)C(=O)N[C@H](C(=O)N1CCC[C@H]1C(=O)N[C@H](C(=O)NCC(=O)N[C@@H](CO)C(=O)N[C@@H](CC(N)=O)C(=O)N[C@H](C(=O)N[C@@H](Cc1ccc(O)cc1)C(N)=O)[C@@H](C)O)C(C)C)[C@@H](C)O, also called compound 62) | 0.044 nM | 12.3 | 0.539 nM |
